Test results published in patent JP2007535905A.

Biological target: SM5−1抗原(BIAcore測定に用いた形は記載なし)
Assay: BIAcore (Pharmacia), kinetic analysis after Karlsson et al.

B1: 抗ヒトSM5−1ヒト化抗体(ReSM5−1) (antibody, V domains shown)
VH: QVQLVQSGGGVVQPGRSLRLSCKASGYTFTSYVMHWVRQAPGKGLEWIGYIVPYNDGTKYNEKFKGRFTISSDKSKSTAFLQMDSLRPEDTAVYYCARGSRYDWYLDYWGQGTPVTVSS
VL: NIMMTQSPSSLSASVGDRVTITCKSSQSVLYSSNQKNYLAWYQQTPGKAPKLLIYWASTRESGVPSRFSGSGSGTDYTFTISSLQPEDIATYYCHQYFSSYTFGQGTKLQITR
  Kd: 9.31 nM
